Starred links: 1 amine or outer side, 2 acyl side, 3 side chain; linkers in the order of their positions; H or OH if unused. Positions of bridges follow the written chain, without caps; N, C: chain ends. *: point of attachment. X1 = (S)‑4‑Carboxy‑4‑(19-carboxynonadecanoylamino)butyryl, O=C(O)CCCCCCCCCCCCCCCCCCC(=O)N[C@@H](CCC(=O)*)C(=O)O; C20 diacid = O=C(O)CCCCCCCCCCCCCCCCCCC(=O)*; 19‑carboxyheptadecanoyl = not defined here; γGlu = O=C(O)[C@H](CCC(=O)[*:2])N[*:1]; AEEA = NCCOCCOCC(=O)O
T1: human calcitonin (a) receptor (human, UniProt P30988 25-474)
T1 sequence (looked up): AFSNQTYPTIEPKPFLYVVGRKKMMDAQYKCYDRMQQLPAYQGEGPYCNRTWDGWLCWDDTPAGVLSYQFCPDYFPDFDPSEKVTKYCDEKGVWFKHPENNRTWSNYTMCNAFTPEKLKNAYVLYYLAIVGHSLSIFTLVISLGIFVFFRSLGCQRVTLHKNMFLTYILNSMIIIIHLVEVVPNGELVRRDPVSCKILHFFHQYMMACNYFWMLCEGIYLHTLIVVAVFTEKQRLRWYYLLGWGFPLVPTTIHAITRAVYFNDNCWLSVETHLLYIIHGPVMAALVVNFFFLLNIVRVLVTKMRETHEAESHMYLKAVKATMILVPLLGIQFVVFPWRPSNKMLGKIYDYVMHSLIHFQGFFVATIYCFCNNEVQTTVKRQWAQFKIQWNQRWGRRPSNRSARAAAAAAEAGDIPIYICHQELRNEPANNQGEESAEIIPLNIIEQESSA

T2: human amylin 3(a) receptor (human calcitonin receptor + RAMP-3) (human, UniProt P30988 25-474; O60896 24-148)
T2 sequence (looked up) 1: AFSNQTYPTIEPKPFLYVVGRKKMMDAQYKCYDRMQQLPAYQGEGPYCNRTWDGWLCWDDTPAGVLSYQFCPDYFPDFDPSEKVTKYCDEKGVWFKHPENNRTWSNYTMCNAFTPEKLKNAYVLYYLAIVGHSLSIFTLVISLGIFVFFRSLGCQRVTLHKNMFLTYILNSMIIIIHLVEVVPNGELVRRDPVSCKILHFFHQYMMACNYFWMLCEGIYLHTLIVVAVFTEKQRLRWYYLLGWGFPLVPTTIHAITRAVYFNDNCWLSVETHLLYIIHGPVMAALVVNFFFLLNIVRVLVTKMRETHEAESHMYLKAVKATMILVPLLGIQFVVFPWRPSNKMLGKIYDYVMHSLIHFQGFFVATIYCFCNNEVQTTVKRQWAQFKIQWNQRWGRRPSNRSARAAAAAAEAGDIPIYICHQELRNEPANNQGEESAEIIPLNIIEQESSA
T2 sequence (looked up) 2: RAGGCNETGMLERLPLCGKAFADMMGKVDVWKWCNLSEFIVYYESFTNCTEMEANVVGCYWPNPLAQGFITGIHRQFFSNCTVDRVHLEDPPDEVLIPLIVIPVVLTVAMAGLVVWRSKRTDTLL


Assays:
[1] = biological target: T1, human calcitonin (a) receptor; experiment: cell-based or functional assay
[2] = biological target: T2, human amylin 3(a) receptor (human …); experiment: cell-based or functional assay

Row | Binder | CTa receptor human EC50 [1] [nM] | Amylin receptor human EC50 [2] [nM]
1 | {C20 diacid-γGlu}-ERCNTATCATQRLAEFLHHSSNNFGPILPPTNVGSNTY-NH2 (disulfide 3-8; SMILES CC[C@H](C)[C@H](NC(=O)[C@@H]1CCCN1C(=O)CNC(=O)[C@H](Cc1ccccc1)NC(=O)[C@H](CC(N)=O)NC(=O)[C@H](CC(N)=O)NC(=O)[C@H](CO)NC(=O)[C@H](CO)NC(=O)[C@H](Cc1c[nH]cn1)NC(=O)[C@H](Cc1c[nH]cn1)NC(=O)[C@H](CC(C)C)NC(=O)[C@H](Cc1ccccc1)NC(=O)[C@H](CCC(=O)O)NC(=O)[C@H](C)NC(=O)[C@H](CC(C)C)NC(=O)[C@H](CCCNC(=N)N)NC(=O)[C@H](CCC(N)=O)NC(=O)[C@@H](NC(=O)[C@H](C)NC(=O)[C@@H]1CSSC[C@H](NC(=O)[C@H](CCCNC(=N)N)NC(=O)[C@H](CCC(=O)O)NC(=O)CC[C@H](NC(=O)CCCCCCCCCCCCCCCCCCC(=O)O)C(=O)O)C(=O)N[C@@H](CC(N)=O)C(=O)N[C@@H]([C@@H](C)O)C(=O)N[C@@H](C)C(=O)N[C@@H]([C@@H](C)O)C(=O)N1)[C@@H](C)O)C(=O)N[C@@H](CC(C)C)C(=O)N1CCC[C@H]1C(=O)N1CCC[C@H]1C(=O)N[C@H](C(=O)N[C@@H](CC(N)=O)C(=O)N[C@H](C(=O)NCC(=O)N[C@@H](CO)C(=O)N[C@@H](CC(N)=O)C(=O)N[C@H](C(=O)N[C@@H](Cc1ccc(O)cc1)C(N)=O)[C@@H](C)O)C(C)C)[C@@H](C)O) [N-alpha-[(S)-4-Carboxy-4-(19-carboxynonadecanoylamino)butyryl]-Glu-[Arg1,Glu14,His17]-pramlintide] | 0.184 | 0.119
2 | {C20 diacid-γGlu}-HCGTATCATQRLAEFLHRSSSSFGPILPPTEVGSETY-NH2 (disulfide 2-7; SMILES CC[C@H](C)[C@H](NC(=O)[C@@H]1CCCN1C(=O)CNC(=O)[C@H](Cc1ccccc1)NC(=O)[C@H](CO)NC(=O)[C@H](CO)NC(=O)[C@H](CO)NC(=O)[C@H](CO)NC(=O)[C@H](CCCNC(=N)N)NC(=O)[C@H](Cc1c[nH]cn1)NC(=O)[C@H](CC(C)C)NC(=O)[C@H](Cc1ccccc1)NC(=O)[C@H](CCC(=O)O)NC(=O)[C@H](C)NC(=O)[C@H](CC(C)C)NC(=O)[C@H](CCCNC(=N)N)NC(=O)[C@H](CCC(N)=O)NC(=O)[C@@H](NC(=O)[C@H](C)NC(=O)[C@@H]1CSSC[C@H](NC(=O)[C@H](Cc2c[nH]cn2)NC(=O)CC[C@H](NC(=O)CCCCCCCCCCCCCCCCCCC(=O)O)C(=O)O)C(=O)NCC(=O)N[C@@H]([C@@H](C)O)C(=O)N[C@@H](C)C(=O)N[C@@H]([C@@H](C)O)C(=O)N1)[C@@H](C)O)C(=O)N[C@@H](CC(C)C)C(=O)N1CCC[C@H]1C(=O)N1CCC[C@H]1C(=O)N[C@H](C(=O)N[C@@H](CCC(=O)O)C(=O)N[C@H](C(=O)NCC(=O)N[C@@H](CO)C(=O)N[C@@H](CCC(=O)O)C(=O)N[C@H](C(=O)N[C@@H](Cc1ccc(O)cc1)C(N)=O)[C@@H](C)O)C(C)C)[C@@H](C)O) | 0.198 | 0.313
3 | {19‑carboxyheptadecanoyl-γGlu-AEEA-AEEA}-HCNTATCATQRLAEFLHRATQELGPILPPTNVGSNTY-NH2 (disulfide 2-7; reading uncertain; also: printed as N-alpha-[2-(2-{2-[2-(2-{2-[(S)-4-Carboxy-4-(19-carboxyheptadecanoylamino)butyrylamino]ethoxy}ethoxy)acetylamino]ethoxy}ethoxy)acetyl]-[His1,Glu14,His17,Arg18,Ala19,Thr20,Gln21,Glu22,Leu23]-pramlintide) | 0.492 | 0.385

Results, then the binder that gave them:

Row | CTa receptor human EC50 [1] [nM] | Amylin receptor human EC50 [2] [nM] | Binder
4 | 0.74 | 0.151 | {C20 diacid-γGlu}-HHHCNTATCATQRLAEFLVHSSNNFGPILPPTNVGSNTY-NH2 (disulfide 4-9; SMILES CC[C@H](C)[C@H](NC(=O)[C@@H]1CCCN1C(=O)CNC(=O)[C@H](Cc1ccccc1)NC(=O)[C@H](CC(N)=O)NC(=O)[C@H](CC(N)=O)NC(=O)[C@H](CO)NC(=O)[C@H](CO)NC(=O)[C@H](Cc1c[nH]cn1)NC(=O)[C@@H](NC(=O)[C@H](CC(C)C)NC(=O)[C@H](Cc1ccccc1)NC(=O)[C@H](CCC(=O)O)NC(=O)[C@H](C)NC(=O)[C@H](CC(C)C)NC(=O)[C@H](CCCNC(=N)N)NC(=O)[C@H](CCC(N)=O)NC(=O)[C@@H](NC(=O)[C@H](C)NC(=O)[C@@H]1CSSC[C@H](NC(=O)[C@H](Cc2c[nH]cn2)NC(=O)[C@H](Cc2c[nH]cn2)NC(=O)[C@H](Cc2c[nH]cn2)NC(=O)CC[C@H](NC(=O)CCCCCCCCCCCCCCCCCCC(=O)O)C(=O)O)C(=O)N[C@@H](CC(N)=O)C(=O)N[C@@H]([C@@H](C)O)C(=O)N[C@@H](C)C(=O)N[C@@H]([C@@H](C)O)C(=O)N1)[C@@H](C)O)C(C)C)C(=O)N[C@@H](CC(C)C)C(=O)N1CCC[C@H]1C(=O)N1CCC[C@H]1C(=O)N[C@H](C(=O)N[C@@H](CC(N)=O)C(=O)N[C@H](C(=O)NCC(=O)N[C@@H](CO)C(=O)N[C@@H](CC(N)=O)C(=O)N[C@H](C(=O)N[C@@H](Cc1ccc(O)cc1)C(N)=O)[C@@H](C)O)C(C)C)[C@@H](C)O) [N-alpha-[(S)-4-Carboxy-4-(19-carboxynonadecanoylamino)butyryl]-His-His-[His1,Glu14]-pramlintide]
5 | 0.125 | 0.083 | X1-HCNTATCATQRLAEFLVRSSNNFGPILPPTNVGSNTY-NH2 (disulfide 2-7; SMILES CC[C@H](C)[C@H](NC(=O)[C@@H]1CCCN1C(=O)CNC(=O)[C@H](Cc1ccccc1)NC(=O)[C@H](CC(N)=O)NC(=O)[C@H](CC(N)=O)NC(=O)[C@H](CO)NC(=O)[C@H](CO)NC(=O)[C@H](CCCNC(=N)N)NC(=O)[C@@H](NC(=O)[C@H](CC(C)C)NC(=O)[C@H](Cc1ccccc1)NC(=O)[C@H](CCC(=O)O)NC(=O)[C@H](C)NC(=O)[C@H](CC(C)C)NC(=O)[C@H](CCCNC(=N)N)NC(=O)[C@H](CCC(N)=O)NC(=O)[C@@H](NC(=O)[C@H](C)NC(=O)[C@@H]1CSSC[C@H](NC(=O)[C@H](Cc2c[nH]cn2)NC(=O)CC[C@H](NC(=O)CCCCCCCCCCCCCCCCCCC(=O)O)C(=O)O)C(=O)N[C@@H](CC(N)=O)C(=O)N[C@@H]([C@@H](C)O)C(=O)N[C@@H](C)C(=O)N[C@@H]([C@@H](C)O)C(=O)N1)[C@@H](C)O)C(C)C)C(=O)N[C@@H](CC(C)C)C(=O)N1CCC[C@H]1C(=O)N1CCC[C@H]1C(=O)N[C@H](C(=O)N[C@@H](CC(N)=O)C(=O)N[C@H](C(=O)NCC(=O)N[C@@H](CO)C(=O)N[C@@H](CC(N)=O)C(=O)N[C@H](C(=O)N[C@@H](Cc1ccc(O)cc1)C(N)=O)[C@@H](C)O)C(C)C)[C@@H](C)O) [N-alpha-[(S)-4-Carboxy-4-(19-carboxynonadecanoylamino)butyryl]-[His1,Glu14,Arg18]-pramlintide]

Source: patent US20130005646A1 (Novo Nordisk, published 2013)
